The target in the test is human FcγRIa on the cell surface (transfected CHO-S cells, M0/M1 macrophages, hMDM, FcγRI effector reporter cells) (human) (UniProt P12314). The test is described as follows: flow cytometry on CHO-S cells transiently expressing human FcγRIa, PE goat anti-human IgG F(ab')2, % PE+ cells. Background: A flow cytometer gives signals particle by particle.
Chain of human FcγRIa on the cell surface (transfected CHO-S cells, M0/M1 macrophages, hMDM, FcγRI effector reporter cells) (human) (P12314 16-374): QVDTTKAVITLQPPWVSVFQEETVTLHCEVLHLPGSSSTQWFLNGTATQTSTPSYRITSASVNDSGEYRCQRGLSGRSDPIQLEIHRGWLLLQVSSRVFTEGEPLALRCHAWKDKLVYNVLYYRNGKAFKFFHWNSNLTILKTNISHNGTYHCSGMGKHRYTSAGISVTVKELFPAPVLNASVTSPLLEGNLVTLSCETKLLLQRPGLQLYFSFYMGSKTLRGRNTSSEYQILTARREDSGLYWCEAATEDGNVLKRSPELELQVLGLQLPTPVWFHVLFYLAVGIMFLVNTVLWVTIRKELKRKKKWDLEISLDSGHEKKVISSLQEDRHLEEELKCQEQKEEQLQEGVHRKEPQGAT

The term EC50 (read off the curve) denotes the concentration at which the effect is half-maximal. Low values mean greater potency, high ones weaker potency. For cemiplimab (antibody), the EC50 (read off the curve) amounted to 0.3 µg/mL.

(Values after patent publication US20260250404A1.)
